In article PMC9658050:
Values joined by “and” are separate entries in the source; they are usually repeats but may differ in a detail not shown here. Identical values can stand only once.

What was measured:
[1] = target: Full-length SARS-CoV-2 envelope (E) protein (SARS-CoV-2) (UniProt P0DTC4); assay: AUC
[2] = target: His-tagged truncated SARS-CoV-2 E protein (residues 8-65) (SARS-CoV-2) (UniProt P0DTC4); assay: AUC

| Substance | Log10 Ka (monomers to pentamer) [1] | percent of the sample as pentamers [1] [%] | stoichiometry N [1] | Log10 Ka (monomers to pentamer) [2] | percent of the sample as trimers [2] [%] | stoichiometry N [2] |
| --- | --- | --- | --- | --- | --- | --- |
| Full-length SARS-CoV-2 envelope (E) protein (from UniProt P0DTC4 1-75) (natural protein) | 17.4 | 80 | 3 and 5 | – | – | – |
| His-tagged truncated SARS-CoV-2 E protein (residues 8-65) (from UniProt P0DTC4 8-65) (domain or fragment) | – | – | – | 16 | 60 | 3 |
